Results on 29 sequences are retold here after the Immune Epitope Database (IEDB).

Some results are limits rather than exact numbers.

Experiment [1] has as its target HLA-B*07:02. The experiment is described as follows: IEDB peptide-MHC binding, purified MHC/competitive/radioactivity; filed as Kd, often an IC50 or EC50 that approximates it; ≥ and ≤ were set here for values at or beyond the usual limits of such assays.
Experiment [2] concerns the target HLA-B*35:01. The experiment is described as above.
The target of experiment [3] is HLA-B*51:01. The description is as above.
Experiment [4] has as its target HLA-B*53:01. The experiment is described as above.
Experiment [5] concerns the target HLA-B*54:01. The description is as above.
Experiment [6] deals with HLA-A*26:01. The description is as above.
Experiment [7] concerns the target HLA-A*30:02. The description is as above.
In experiment [8] the target is HLA-B*15:01. The experiment is described as above.
For experiment [9], the target named is HLA-A*03:01. Nature of the experiment: IEDB peptide-MHC binding, purified MHC/competitive/fluorescence; filed as Kd, often an IC50 or EC50 that approximates it; ≥ and ≤ were set here for values at or beyond the usual limits of such assays.
Experiment [10] deals with HLA-A*32:01. Nature of the experiment: IEDB peptide-MHC binding, purified MHC/competitive/radioactivity; filed as Kd, often an IC50 or EC50 that approximates it; ≥ and ≤ were set here for values at or beyond the usual limits of such assays. The note with it: source organism: Vaccinia virus WR.
The target in experiment [11] is HLA-A*02:06. The experiment is described as above. The note with it: source organism: Dengue virus 4 Philippines/H241/1956.
Experiment [12] concerns the target HLA-A*01:01. Described as above. The note with it: source organism: Dengue virus 3 Martinique/1243/1999.
Experiment [13] has as its target HLA-A*68:01. The description is as above. As to conditions: source organism: Dengue virus 3 Martinique/1243/1999.
Where [14] appears, read: source organism: Mammarenavirus whitewaterense.
Setting [15] is: source organism: Dengue virus 4 Philippines/H241/1956.
[16] abbreviates: source organism: Vaccinia virus WR.
Setting [17] is: source organism: SARS coronavirus Tor2.
Setting [18] is: source organism: Mammarenavirus lassaense.
Where [19] appears, read: source organism: Triticum aestivum.
[20] abbreviates: source organism: Dengue virus 4 Dominica/814669/1981.
Where [21] appears, read: source organism: Mammarenavirus juninense.
The mark [22] stands for this setting: source organism: Dengue virus 3 Martinique/1243/1999.

APTGGVVKI: the Kd (in general, the constant that tells how readily two partners part at equilibrium) was 1780 nM in experiment [1] (setting [14]); 9320 nM in [2] (setting [14]); not below 57800 nM in experiment [3] (setting [14]); 10500 nM in experiment [4] (setting [14]); not below 78100 nM in [5] (setting [14]).
As for AVFKMSPGY, the Kd came out at 1920 nM in experiment [6] (setting [15]), 82.2 nM in experiment [7] (setting [15]) and 14.3 nM in [8] (setting [15]).
On to CLLNYSGLK, for which, in [9] (source organism: Escherichia coli O139:H28 str. E24377A), the Kd worked out at 27.8 nM.
For the sequence CPASKKESVI, the Kd in [1] (setting [16]) was 7.12 nM; in experiment [2] (setting [16]) it was not below 69900 nM; in experiment [3] (setting [16]) it was 9310 nM; in experiment [4] (setting [16]), 92.3 nM; in experiment [5] (setting [16]), 2410 nM.
With CPAVAVHDF, the Kd in experiment [1] (setting [17]) came to 1640 nM; in [2] (setting [17]), 14.4 nM; in [3] (setting [17]), 241 nM; in experiment [4] (setting [17]) it was 27.6 nM; in [5] (setting [17]), 7480 nM.
Take FPYIMGSVEL: the Kd in experiment [1] (setting [18]) came to 241 nM; in [2] (setting [18]) it was 12.4 nM; in experiment [3] (setting [18]) it was 368 nM; in experiment [4] (setting [18]), 80.2 nM; in [5] (setting [18]), 155 nM.
Regarding GPMPYMISTY, the Kd in [1] (setting [16]) is 886 nM; in experiment [2] (setting [16]), 89.3 nM; in experiment [3] (setting [16]), not below 64700 nM; in experiment [4] (setting [16]) it was 272 nM; in experiment [5] (setting [16]) it was 1500 nM.
For HINKLFSVF, the Kd in [10] was found to be 907 nM; in experiment [8] (setting [16]), 0.915 nM.
In [9] (source organism: Bacillus anthracis str. A0488), IILAHFLYK registered a Kd of 12 nM.
With IPEQSQCQAI, the Kd in experiment [1] (setting [19]) is 5900 nM; in [2] (setting [19]), 6050 nM; in [3] (setting [19]), 774 nM; in experiment [4] (setting [19]), 3890 nM; in experiment [5] (setting [19]), not below 25600 nM.
Take IPSLFIESSI: the Kd is 680 nM in [1] (setting [16]); not below 69900 nM in experiment [2] (setting [16]); 1900 nM in [3] (setting [16]); 1980 nM in experiment [4] (setting [16]); 429 nM in [5] (setting [16]).
For IQRTVFFVL, the results for the Kd in experiment [11] and in [8] (setting [15]) were 12.3 nM and 5.09 nM, respectively.
The sequence LLLKERGLK registered a Kd in experiment [9] (source organism: Vibrio vulnificus CMCP6) of 29.6 nM.
For LMYADDTAGW, the Kd in experiment [8] (setting [20]) is 41.6 nM; in [4] (setting [20]), 46.1 nM.
Consider LPFHRWHTM, for which the Kd in [1] (setting [17]) came out at 8.4 nM; in experiment [2] (setting [17]), 7.16 nM; in [3] (setting [17]), 11.1 nM; in experiment [4] (setting [17]), 100 nM; in [5] (setting [17]), 274 nM.
On the same counts, the results for LPIDKCSRII are 1400 nM, 2550 nM, 681 nM, 603 nM and 1140 nM.
In the case of LPTLFGRGV, the Kd is 8.32 nM in [1] (setting [16]); 1280 nM in experiment [2] (setting [16]); 6.04 nM in experiment [3] (setting [16]); 956 nM in [4] (setting [16]); 1.99 nM in [5] (setting [16]).
As to LSASVFYRG, in [8] (setting [16]), the Kd was 295 nM.
Same read-out and setting: as for LVRHYFRYI, the figure is 158 nM.
Regarding MAVELFQTI, the Kd in experiment [1] (setting [21]) is 7280 nM; in [2] (setting [21]) it was 61 nM; in experiment [3] (setting [21]) it was 8.54 nM; in [4] (setting [21]) it was 6.99 nM; in experiment [5] (setting [21]) it was 188 nM.
For MPYVFTLLF, the Kd in experiment [1] (setting [17]) turned out to be 109 nM; in experiment [2] (setting [17]) it was 0.59 nM; in experiment [3] (setting [17]), 4.07 nM; in [4] (setting [17]) it was 0.124 nM; in [5] (setting [17]) it was 30.6 nM.
MTIDLDPVIY: the Kd in experiment [12] was 2990 nM; in experiment [6] (setting [22]), 5.59 nM; in experiment [7] (setting [22]), not below 25400 nM; in experiment [13], 11.9 nM; in experiment [8] (setting [22]), 5.32 nM; in experiment [2] (setting [22]), 24.8 nM.
As to NVFKAMETF, the Kd in experiment [8] (setting [16]) was determined as 22.8 nM.
On to QIAMTDTTPF, for which, in [8] (source organism: Dengue virus 1 Brazil/97-11/1997), the Kd was found to be 7.04 nM.
QMANGIALGL: in experiment [8] (setting [22]), the Kd was determined as 191 nM.
On to QPFPQPQL, for which the Kd in experiment [1] (setting [19]) was 583 nM; in [2] (setting [19]), not below 87800 nM; in [3] (setting [19]), 2160 nM; in experiment [4] (setting [19]), not below 87700 nM; in experiment [5] (setting [19]), not below 20300 nM.
Consider QPFPQPQLPY, for which the Kd in [1] (setting [19]) is 552 nM; in experiment [2] (setting [19]) it was 9.37 nM; in [3] (setting [19]), 1370 nM; in [4] (setting [19]) it was 256 nM; in experiment [5] (setting [19]), not below 41000 nM.
As to TQVPFCSHHF, the Kd in experiment [8] (source organism: Dengue virus 2 Jamaica/1409/1983) came out at 2.37 nM.
In the case of VPAAIMMIL, the Kd in experiment [1] (setting [16]) was not below 76900 nM; in experiment [2] (setting [16]), 18700 nM; in [3] (setting [16]), not below 77500 nM; in experiment [4] (setting [16]), 19300 nM; in [5] (setting [16]), not below 78100 nM.
